From patent publication US20060110730A1, “Methods and compositions for regulation and manipulation of steroidogenesis” (priority 2002, published 2006) come the findings set out here.

In experiment [1] the test system is COS-1 cells. Kind of experiment: Pregnenolone production of COS-1 cells co-transfected with F2 (cholesterol side-chain cleavage fusion) and StAR constructs. The conditions noted are these: for increase in steroidogenesis over the StAR-independent level seen with F2 alone: accumulated pregnenolone after 48 h; for steroidogenic activity (in words): pregnenolone in medium. In kind it is cell-based, monkey. Here is the method:
COS-1 cells were grown, transfected and assayed for pregnenolone production as Described (Stocco, D. M. & Clark, B. J. Regulation of the acute production of steroids in steroidogenic cells. Endocr. Rev. 17, 221-244 (1996)), (Bose, H. S., et al. N-218 MLN64, a protein with StAR-like steroidogenic activity is folded and cleaved similarly to StAR. Biochemistry 39, 11722-11731 (2000)). Three independent transfections, each performed in triplicate, were done for each construct.
To determine the location of biological activity of the mitochondrial protein StAR, wild-type and StAR proteins with an N-terminal deletion and StAR proteins fused to a protein that would function to immobilize the StAR protein in one of the four mitochondrial compartments were evaluated for their ability to catalyze steroidogenesis. Nonsteroidogenic COS-I monkey kidney cells were grown, transfected and assayed for pregnenolone production as described (Stocco, D. M. and Clark, B. J., Endocr Rev 17, 221-244 (1996); Bose, H. S., et al., Biochemistry 39, 11722-11731 (2000)). Three independent transfections, each performed in triplicate, were done for each construct. The cells were transfected with a vector expressing full length StAR or a vector expressing N-62 StAR, Tom-StAR, StAR-Tom, Tim44-StAR, or Tim9-StAR. Tom20, Tim9 and Tim44 cDNAs were prepared from human adrenal RNA by RT-PCR. N-62 StAR cDNA including an enterokinase linker fused to 63-285 StAR was derived from a bacterial expression vector (see Artemenko, et al., J. Biol. Chem. 276: 46583-46596 (2001). Tom/StAR is Tom20 fused to 63-285 through GSDDDDK, which contains Bam HI and enterokinase sites (Bam/EK linker). StAR/Tom is 1-285 StAR fused to Tom20 through Eco RI/EK linker (GFDDDDK). Tim9/StAR contains the 25 amino acid mitochondrial leader of cytochrome c oxidase subunit IV (Bose et al, Biochemistry, 37: 9768-9775 (1998)) fused to Tim9 linked to N-30 StAR through the Bam/EK linker. Tim44/StAR is Tim44 fused to 63-285 StAR through the Bam/EK linker. Tom20 has 50 amino-terminal residues embedded in the OMM and 95 residues in the cytoplasm (Abe, Y., et al., Cell 100, 551-560 (2000)). Expression of Tom20 with N-62 StAR fused to its carboxy-terminus (Tom/StAR) affixed StAR to the cytoplasmic side of the OMM. Expression of Tim9, which is normally confined to the IMS (Bauer et al, J. Inher. Metab. Dis. 24: 166-180 (2001)), fused to N-30 StAR (Tim9/StAR) localized StAR to the IMS. Expression of Tim44, which lies on the matrix side of the IMM, fused to N-62 StAR (Tim44/StAR), targeted StAR to the matrix. […]

Experiment [2] deals with MA-10 mitochondria. Kind of experiment: Steroidogenic activity (pregnenolone) of isolated MA-10 mitochondria incubated with StAR constructs from cell-free transcription/translation. It is filed as biochemical, mouse. Here is the method: (§1) StAR constructs were bioassayed (Bose, H. S., et al. N-218 MLN64, a protein with StAR-like steroidogenic activity is folded and cleaved similarly to StAR. Biochemistry 39, 11722-11731 (2000)) with MA-10 mitochondria. Linked transcription/translation system was added directly to the mitochondria except when Tim9/StAR was immunoprecipitated with anti-StAR antiserum (Bose, H. S., et al. The active form of the steroidogenic acute regulatory protein, StAR, appears to be a molten globule. Proc. Natl Acad. Sci. USA 96, 7250-7255 (1999)), collected with protein A-sepharose CL-4B (Pharmacia), washed, dissociated from the sepharose-antibody complex at pH 3.0, neutralized and added directly to mitochondria. Immunoassays of pregnenolone were performed after incubation at 378 C. for 1 h; immunoblotting was performed as described (Bose, H. S., et al. N-218 MLN64, a protein with StAR-like steroidogenic activity is folded and cleaved similarly to StAR. Biochemistry 39, 11722-11731 (2000)).
as §1, with “al.,” for “al. N-218 MLN64, a protein with StAR-like steroidogenic activity is folded and cleaved similarly to StAR.”, “al., Proc” for “al. The active form of the steroidogenic acute regulatory protein, StAR, appears to be a molten globule. Proc.”, “Acad Sci” for “Acad. Sci.”, “harvested” for “collected”, “37°” for “378 C.”

Experiment [3] concerns MA-10 cell mitochondria. Kind of experiment: Mitochondrial import and cleavage kinetics of StAR constructs. In kind it is biochemical, mouse. The conditions noted are these: 26° C., phosphorimager quantitation of uncleaved and cleaved imported protein. The text has this: StAR constructs were cloned into the BglII/EcoRI site of pSP6, transcribed with SP6 RNA polymerase (Promega) and translated with [35S]methionine as described (Chuck, S. & Lingappa, V. Apolipoprotein B intermediates. Nature 356, 115-116 (1992)). Mitochondria, isolated from 5 £ 106 MA-10 or COS-1 cells by hypotonic shock and homogenization (Bose, H. S., et al. N-218 MLN64, a protein with StAR-like steroidogenic activity is folded and cleaved similarly to StAR. Biochemistry 39, 11722-11731 (2000)) were suspended in […] of 125 mM sucrose, 1 mM ATP, 1 mM NADH, 50 mM KCl, 0.05 mM ADP, 2 mM DTT, 5 mM Na-succinate, 2 mM Mg(OAc)2, 2 mM KH2PO4 and 10 mM HEPES buffer at pH 7.4. Mitochondria (50 ml) and 1 ml of the transcription/translationmix were incubated at 268 C. for various times; import was terminated with 1 ml 1 mM mCCCP (Calbiochem). Some mitochondria were extracted with fresh 100 mM Na2CO3, pH 11.5, for 15 min at 48 C. and spun at 15,000 g for 15 min at 48 C. to pellet membranes. Some membranes were incubated with 0.1% digitonin (Sigma) for 15 min at 48 C. and spun at 144,000 g for 1 h at 48 C. to pelletOMMfragments. […] Analysis was by SDS-polyacrylamide gel electrophoresis (SDS-PAGE) and phosphorimager quantification (Molecular Dynamics, Storm 860). […]

Consider `CC(C)CC[C@@H](O)[C@@H](C)[C@H]1CC[C@H]2[C@@H]3CC=C4C[C@@H](O)CC[C@]4(C)[C@H]3CC[C@]12C` [22R-OH-cholesterol, 22R-hydroxycholesterol, reference compound], for which the “increase in steroidogenesis over the StAR-independent level seen with F2 alone” value in experiment [1] is ~20 fold.

B1: full-length StAR: full-length (1-285) steroidogenic acute regulatory protein (protein, UniProt P49675 1-285, looked up)
chain: MLLATFKLCAGSSYRHMRNMKGLRQQAVMAISQELNRRALGGPTPSTWINQVRRRSSLLGSRLEETLYSDQELAYLQQGEEAMQKALGILSNQEGWKKESQQDNGDKVMSKVVPDVGKVFRLEVVVDQPMERLYEELVERMEAMGEWNPNVKEIKVLQKIGKDTFITHELAAEAAGNLVGPRDFVSVRCAKRRGSTCVLAGMATDFGNMPEQKGVIRAEHGPTCMVLHPLAGSPSKTKLTWLLSIDLKGWLPKSIINQVLSQTQVDFANHLRKRLESHPASEARC
modifications: full-length
notes: full-length (1-285) steroidogenic acute regulatory protein
Consider B1, for which, in experiment [1], the “increase in steroidogenesis over the StAR-independent level seen with F2 alone” value was found to be 6 fold and the “steroidogenic activity (in words)” value is given as “equivalent at all times measured after transfection”. The “steroidogenic activity (in words)” value in experiment [1] (listed as full-length (1-285) StAR) is “about half the maximal capacity of the cells”. For the same molecule, in experiment [2] (MA-10 mitochondria incubated with cell-free transcription/translation system expressing the construct, versus control system), the increase in steroidogenesis is ~6 fold. Besides, the “activity of MA-10 cell mitochondria (in words)” value in experiment [2] (equal amounts of each protein added, 1 h) is reported as “equally active”. Besides, the “steroidogenic activity of reconstituted mitochondria (in words)” value in experiment [2] (mitochondria reconstituted from OMM and mitoplast fractions) was “active”. Besides, the “import speed (ranking)” value in experiment [3] was “Scc/N-62 StAR>>Scc/N-30 StAR>full-length StAR”.
